Measured values taken from patent US12319941B2, “Thermophilic recombinant type II pullulanase and application thereof” (Jiangnan University, priority 2019, dated 2025).
Entries after “also recorded” stand apart in the source; their conditions may differ. Read-outs that look alike come from different tables or passages of the source.

Tests used:
[1] = system: recombinant type II pullulanase Sumo-PulPy; assay: Effect of metal ions and chemical reagents on the enzyme activity of Sumo-PulPy; format: biochemical, Pyrococcus yayanosii CH1; conditions: for Relative enzyme activity (%): pH 6.6; for effect on the enzyme activity of Sumo-PulPy (in words): reagent added to enzymatic reaction system
[2] = DNS method enzyme activity and kinetic parameters (Lineweaver-Burk) with pullulan as substrate; format: biochemical; conditions: for Km / Vmax: pullulan 1.25-40 mg/mL, optimum conditions
Description: (§1) The determination of the activity of recombinant type II pullulanase Sumo-PulPy was adopted the 3,5-dinitrosalicylic acid (DNS) method. The specific steps were as follows: reacting 100 μL reaction system (10 μL potassium phosphate buffer with different pH with a final concentration of 100 mM, 50 μL pullulan with a final concentration of 3% and 40 μL enzyme solution) at a certain temperature for 15 min, adding 100 μL DNS reaction solution, boiling in a water bath for 6 min, immediately cooling to room temperature with running water, adding and diluting with distilled water, mixing well, and determining […]. One enzyme activity unit (U) was defined as the amount of enzyme required to release reducing sugar correspond to the reduction capacity of 1 μmol glucose per minute under assay conditions.
Using different concentrations of pullulan (1.25, 2.5, 5, 10, 20, and 40 mg/mL) as the substrate, the enzyme activity was determined under the optimum conditions, the corresponding reaction rate was calculated, and Km value and Vmax were obtained by Linewear Burk method using Michaelis-Menten Equation.

[3] = Optimum pH and pH stability of the enzyme; format: biochemical; conditions: for optimum pH: 100 mM potassium phosphate buffer pH 5.8-8.0; for pH stability / pH tolerance: between pH 5.8 and 8.0
Description: as §1
Determination of the optimum pH: the purified Sumo-PulPy was subjected to enzymatic reaction in 100 mM potassium phosphate buffer (pH 5.8-8.0) at 95° C.
Determination of the pH stability of the enzyme: the enzyme solution was added into 100 mM potassium phosphate buffer (pH 5.8-8.0) and disposed at 4° C. for 4 h, and then the enzymatic reaction was performed at pH 6.6 and 95° C. to determine the remaining enzyme activity of Sumo-PulPy. […] Except for a 12% loss of enzyme activity after disposal at pH 5.8 for 4 h, the rest has almost no effect on the enzyme activity (FIG. 4).

[4] = format: biochemical; conditions: for optimum temperature: potassium phosphate buffer, 75-100° C.
Description: as §1
Determination of the optimum temperature of the enzyme: the enzymatic reaction was performed in a potassium phosphate buffer (pH 6.6) at 75-100° C.
Determination of the thermal stability of the enzyme: the enzyme solution with the same amount of enzyme was placed under the conditions of 80° C., 90° C., 95° C. and 100° C., respectively, and disposed for 2 h, 4 h, 6 h, 8 h and 10 h, respectively, and the enzymatic reaction was performed at pH 6.6 and 95° C. to determine the remaining enzyme activity of Sumo-PulPy.

[5] = Analysis of degradation products of pullulan (HPLC); format: biochemical; conditions: 1% pullulan, 95° C., 6 h
Description: (§2) The sample processing procedure was as follows: an appropriate amount of pure enzyme solution was mixed well with 1% pullulan and 1% Amylose from potato respectively, enzymatically hydrolyzed at 95° C. for 6 h, cooled to room temperature and then centrifuged at 12000 r/min for 20 min. And the supernatant was taken. The enzymatic hydrolysis products of pullulan and Amylose from potato were analyzed using high performance liquid chromatography (HPLC, conditions: Hpersil NH2 amino column (4.6×250 mm), column temperature 40° C., mobile phase (acetonitrile:water=67:33), flow rate 1.0 mL/min, injection volume 20 μL) and MALDI-TOF/TOF matrix-assisted laser […]/ionization tandem time-of-flight mass spectrometer respectively.

[6] = Analysis of degradation products of Amylose from potato (MALDI-TOF/TOF); format: biochemical; conditions: 1% Amylose from potato, 95° C., 6 h
Description: as §2

[7] = reagent 2 mM, 100% = no reagent, 95° C.
[8] = reagent 1%, 100% = no reagent, 95° C.

Molecule: [Ca+2].[Cl-].[Cl-] [CaCl2]
- Relative enzyme activity (%) [1, 7]: 71.3 ± 3.5%

Molecule: [Cl-].[Cl-].[Co+2] [CoCl2]
- Relative enzyme activity (%) [1]: 150.0 ± 4.8%

Molecule: [Cl][Cu][Cl] [CuCl2]
- Relative enzyme activity (%) [1, 7]: 45.9 ± 3.5%

Molecule: O[C@@H](CS)[C@@H](O)CS [DTT]
- Relative enzyme activity (%) [1, 8]: 337.2 ± 4.7%

Molecule: O=S(=O)([O-])[O-].[Fe+2] [FeSO4]
- Relative enzyme activity (%) [1, 7]: 183.1 ± 4.0%

Molecule: [Cl-].[K+] [KCl]
- Relative enzyme activity (%) [1, 7]: 104.1 ± 3.0%
- effect on the enzyme activity of Sumo-PulPy (in words) [1]: weakly promote

Molecule: [Cl-].[Cl-].[Mg+2] [MgCl2]
- Relative enzyme activity (%) [1, 7]: 94.9 ± 3.4%

Molecule: [Cl][Mn][Cl] [MnCl2]
- Relative enzyme activity (%) [1, 7]: 91.2 ± 2.9%

Molecule: [Cl-].[Na+] [NaCl]
- Relative enzyme activity (%) [1]: 81.1 ± 4.2%

Molecule: O=S(=O)([O-])[O-].[Ni+2] [NiSO4]
- Relative enzyme activity (%) [1, 7]: 73.3 ± 3.3%

Molecule: CCCCCCCC/C=C\CCCCCCCC(=O)OCCOCC(OCCO)C1OCC(OCCO)C1OCCO (centres unmarked) [Tween-80]
- Relative enzyme activity (%) [1, 8]: 110.8 ± 2.9%
- effect on the enzyme activity of Sumo-PulPy (in words) [1]: weakly promote

Molecule: O=S(=O)([O-])[O-].[Zn+2] [ZnSO4]
- Relative enzyme activity (%) [1, 7]: 0%

Molecule: OCCS [β-mercaptoethanol]
- Relative enzyme activity (%) [1, 8]: 157.4 ± 3.0%

Molecule: Triton X-100
- Relative enzyme activity (%) [1, 8]: 111.1 ± 3.6%
- effect on the enzyme activity of Sumo-PulPy (in words) [1]: weakly promote

B1: Δ28N+Δ791C: combined truncation mutant of PulPy: first 28 N-terminal amino acids and amino acids after position 790 deleted (SEQ ID NO:3) (protein)
chain: MGHHHHHHMSDSEVNQEAKPEVKPEVKPETHINLKVSDGSSEIFFKIKKTTPLRRLMEAFAKRQGKEMDSLRFLYDGIRIQADQTPEDLDMEDNDIIEAHREQIGGQRGSPKPLNVIIVWHQHQPYYYDPVQGIYTRPWVRLHAANNYWKMAYYLSKYPDVHATIDLSGSLIAQLADYMNGAKDIYQIITEKIAKGEPLTVEEKWLMLQAPGGFFDHTIPWNGEPVTDKNGNPIRDFWNRYTELKNKMLQAKAKYANLPLEEQKVAVTNEFTEQDYIDLAVLFNLAWIDYNYIMNTPELKALYEKVDEGGYTREDVRTVLKHQMWLLNHTFEEHEKINLLLGNGNVEVTVVPYAHPIGPILNDFGWEEDFDAHVKKAHELYKKYLGAGKVTPKGGWAAESALNDKTLEILAENGWQWVMTDQLVLQKLGIPYTVENYYKPWVAEFNGRKIYLFPRDHALSDRVGFTYSGMNQYQAVEDFINELLRIQKQNYDGSLVYVITLDGENPWEHYPYDGKLFLETLYKRLTELQRQGLIRTLTPSEYIKLYGDKANKLTPQMMERLDLTGDNVEALLKAQSLGELYDMIGVKEEMQWPESSWIDGTLSTWIGEPQENYGWYWLYLARKALMAQKDKMSQENWEKAYEYLLRAEASDWFWWYGSDQSSGQDYTFDRYFKTYLYEIYRLAGLEPPSYLYGNYFPDGEPYTIRALEGLGEGQVKEYSSMSPLAEGVSVYFDGEGVHFVVKGNLEKFEISIYEKGERVGNTFTLLQERPGELKYSLFPFSRDSVGLLITKHVVYRDGKAEIYAATDYENTEKVGEASVKQVDGGVEIVVPFDYIKTPEDFYFAVSTVKDGELEIITTPIELKLPMEVKGVP
modifications: Protein translated from synthetic DNA
- specific enzyme activity [2]: 32.18±0.92 U/mg
- specific enzyme activity relative to Sumo-PulPy [2]: 5.99 times
- Km [2]: 6.63 ± 0.56 mg/mL
- Vmax [2]: 32.18±0.92 U/mg
- optimum pH [3]: 6.4
- pH stability / pH tolerance [3]: good pH tolerance
- improvement of optimum temperature compared with Sumo-PulPy [4]: 5 °C
- thermal stability at 100° C. compared with Sumo-PulPy [4]: slightly improves
- remaining enzyme activity after heat preservation at 100° C. for 2 h ([4]; 2 h): greater than 60%
- optimum temperature [4]: 100 °C

B2: Sumo-PulPy: thermophilic recombinant type II pullulanase from Pyrococcus yayanosii CH1 (SEQ ID NO:1) with His and Sumo tags, expressed in E. coli (protein)
chain: MGHHHHHHMSDSEVNQEAKPEVKPEVKPETHINLKVSDGSSEIFFKIKKTTPLRRLMEAFAKRQGKEMDSLRFLYDGIRIQADQTPEDLDMEDNDIIEAHREQIGGQRGSRRVLSLFVVFVVLGSLLALQPEVKAGEPKPLNVIIVWHQHQPYYYDPVQGIYTRPWVRLHAANNYWKMAYYLSKYPDVHATIDLSGSLIAQLADYMNGAKDIYQIITEKIAKGEPLTVEEKWLMLQAPGGFFDHTIPWNGEPVTDKNGNPIRDFWNRYTELKNKMLQAKAKYANLPLEEQKVAVTNEFTEQDYIDLAVLFNLAWIDYNYIMNTPELKALYEKVDEGGYTREDVRTVLKHQMWLLNHTFEEHEKINLLLGNGNVEVTVVPYAHPIGPILNDFGWEEDFDAHVKKAHELYKKYLGAGKVTPKGGWAAESALNDKTLEILAENGWQWVMTDQLVLQKLGIPYTVENYYKPWVAEFNGRKIYLFPRDHALSDRVGFTYSGMNQYQAVEDFINELLRIQKQNYDGSLVYVITLDGENPWEHYPYDGKLFLETLYKRLTELQRQGLIRTLTPSEYIKLYGDKANKLTPQMMERLDLTGDNVEALLKAQSLGELYDMIGVKEEMQWPESSWIDGTLSTWIGEPQENYGWYWLYLARKALMAQKDKMSQENWEKAYEYLLRAEASDWFWWYGSDQSSGQDYTFDRYFKTYLYEIYRLAGLEPPSYLYGNYFPDGEPYTIRALEGLGEGQVKEYSSMSPLAEGVSVYFDGEGVHFVVKGNLEKFEISIYEKGERVGNTFTLLQERPGELKYSLFPFSRDSVGLLITKHVVYRDGKAEIYAATDYENTEKVGEASVKQVDGGVEIVVPFDYIKTPEDFYFAVSTVKDGELEIITTPIELKLPMEVKGVPIVDVVDPEGDDYGPGTYTYPTDPVFVPHHLDLLRFRILEQTDAYVMEFYFKELGGNVWNAPNGFSLQIIEVYLDFREGGNTSAIKMFPDGPGANVNLDPEHPWDLALRIAGWDYGNLIVLPNGTVYQGELQISADPVNNKIIVKVPKKYIQIDEDYGLWGVVLVGSQDGYGPDKWRPVAVEAEQWRLGGADQQAVIDNLAPRVVDLLVPEGFKPTQEEQLSSYDLEKKILATVLMIPLIEGSGGEEPAETPRETAIPAESPTTTEAPTETQSTTTSQGPTETQTGGGICGPVALLGLVMTPLLLRRRR
modifications: His and Sumo tags; Protein translated from synthetic DNA
- specific enzyme activity [2]: 5.37±0.20 U/mg
- specific enzyme activity ([2]; 95° C. and pH 6.6, no metal ions or chemical reagents added): 5.37±0.20 U/mg
- Km [2]: 8.78 ± 0.89 mg/mL
- Vmax [2]: 5.37±0.20 U/mg
- optimum pH [3]: 6.6
- loss of enzyme activity after disposal at pH 5.8 for 4 h ([3]; 4° C., 4 h, pH 5.8, then assay at pH 6.6 and 95° C.): 12%
- pH stability / pH tolerance [3]: better pH tolerance; also recorded: very stable
- remaining enzyme activity after heat preservation at 95° C. for 10 h ([4]; 10 h): greater than 50%
- optimum temperature [4]: 95 °C
- pullulan hydrolysates [5]: most of the pullulan hydrolysates are maltotriose
- hydrolysate of Amylose from potato [6]: mainly oligosaccharides such as pentasaccharides, hexasaccharides, heptasaccharides, and octasaccharides
